± gives the uncertainty stated by the source.

The chains are these.
B1: Nuclear receptor subfamily 4 group A member 2, residues 260 to 336; numbered along this chain, P43354 (parent)
chain: EGLCAVCGDNAACQHYGVRTCEGCKGFFKRTVQKNAKYVCLANKNCPVDKRRRNRCQYCRFQKCLAVGMVKEVVRTD

The variants in the data set derive from B1. The data set is described as follows: abundance fitness (aPCA) (normalised: wild type 0, dead -1); higher = more abundant; growth selection in yeast, the domain comes from the species named. The settings on record: Homo sapiens.
Consider EGLCAVCGDNAACQHYGVRTCEGCKGFDKRTVQKNAKYVCLANKNCPVDKRRRNRCQYCRFQKCLAVGMVKEVVRTD [F28D], for which the abundance fitness was -0.747 ± 0.5.
In the case of EGLCAVCGDNAACQHYGVRTCEGCKGFKKRTVQKNAKYVCLANKNCPVDKRRRNRCQYCRFQKCLAVGMVKEVVRTD [F28K], the abundance fitness is -0.981 ± 0.33.
In the case of EGLCAVCGDNAACQHYGVRTCEGCKGFAKRTVQKNAKYVCLANKNCPVDKRRRNRCQYCRFQKCLAVGMVKEVVRTD [F28A], the abundance fitness was -0.1 ± 0.063.
The same measure for EGLCAVCGDNAACQHYGVRTCEGCKGFMKRTVQKNAKYVCLANKNCPVDKRRRNRCQYCRFQKCLAVGMVKEVVRTD [F28M]: -0.176 ± 0.11; for EGLCAVCGDNAACQHYGVRTCEGCKGFQKRTVQKNAKYVCLANKNCPVDKRRRNRCQYCRFQKCLAVGMVKEVVRTD [F28Q]: -0.484 ± 0.13; for EGLCAVCGDNAACQHYGVRTCEGCKGFLKRTVQKNAKYVCLANKNCPVDKRRRNRCQYCRFQKCLAVGMVKEVVRTD [F28L]: -0.15 ± 0.077.
The same measure for EGLCAVCGDNAACQHYGVRTCEGCKGFNKRTVQKNAKYVCLANKNCPVDKRRRNRCQYCRFQKCLAVGMVKEVVRTD [F28N]: -0.707 ± 0.43; for EGLCAVCGDNAACQHYGVRTCEGCKGFHKRTVQKNAKYVCLANKNCPVDKRRRNRCQYCRFQKCLAVGMVKEVVRTD [F28H]: -0.114 ± 0.29; for EGLCAVCGDNAACQHYGVRTCEGCKGFSKRTVQKNAKYVCLANKNCPVDKRRRNRCQYCRFQKCLAVGMVKEVVRTD [F28S]: -0.381 ± 0.095.
The same measure for EGLCAVCGDNAACQHYGVRTCEGCKGFCKRTVQKNAKYVCLANKNCPVDKRRRNRCQYCRFQKCLAVGMVKEVVRTD [F28C]: -0.483 ± 0.36.
EGLCAVCGDNAACQHYGVRTCEGRKGFFKRTVQKNAKYVCLANKNCPVDKRRRNRCQYCRFQKCLAVGMVKEVVRTD [C24R]: the abundance fitness is -0.954 ± 0.43.
The same measure for EGLCAVCGDNAACQHYGVRTCEGVKGFFKRTVQKNAKYVCLANKNCPVDKRRRNRCQYCRFQKCLAVGMVKEVVRTD [C24V]: -0.802 ± 0.37; for EGLCAVCGDNAACQHYGVRTCEGCTGFFKRTVQKNAKYVCLANKNCPVDKRRRNRCQYCRFQKCLAVGMVKEVVRTD [K25T]: -0.12 ± 0.17.
With EGLCAVCGDNAACQHYGVRTCEGCDGFFKRTVQKNAKYVCLANKNCPVDKRRRNRCQYCRFQKCLAVGMVKEVVRTD [K25D] the figure was -0.017 ± 0.18.
The same measure for EGLCAVCGDNAACQHYGVRTCEGCMGFFKRTVQKNAKYVCLANKNCPVDKRRRNRCQYCRFQKCLAVGMVKEVVRTD [K25M]: 0.082 ± 0.12; for EGLCAVCGDNAACQHYGVRTCEGCLGFFKRTVQKNAKYVCLANKNCPVDKRRRNRCQYCRFQKCLAVGMVKEVVRTD [K25L]: 0.057 ± 0.098.
For the variant EGLCAVCGDNAACQHYGVRTCEGCWGFFKRTVQKNAKYVCLANKNCPVDKRRRNRCQYCRFQKCLAVGMVKEVVRTD [K25W], the abundance fitness is -0.013 ± 0.13.
The same measure for EGLCAVCGDNAACQHYGVRTCEGCNGFFKRTVQKNAKYVCLANKNCPVDKRRRNRCQYCRFQKCLAVGMVKEVVRTD [K25N]: 0.033 ± 0.36.
The same measure for EGLCAVCGDNAACQHYGVRTCEGCYGFFKRTVQKNAKYVCLANKNCPVDKRRRNRCQYCRFQKCLAVGMVKEVVRTD [K25Y]: -0.503 ± 0.31; for EGLCAVCGDNAACQHYGVRTCEGCEGFFKRTVQKNAKYVCLANKNCPVDKRRRNRCQYCRFQKCLAVGMVKEVVRTD [K25E]: 0.049 ± 0.1.
Regarding EGLCAVCGDNAACQHYGVRTCEGCSGFFKRTVQKNAKYVCLANKNCPVDKRRRNRCQYCRFQKCLAVGMVKEVVRTD [K25S], the abundance fitness was -0.031 ± 0.079.
The same measure for EGLCAVCGDNAACQHYGVRTCEGCRGFFKRTVQKNAKYVCLANKNCPVDKRRRNRCQYCRFQKCLAVGMVKEVVRTD [K25R]: 0.079 ± 0.071.
The same measure for EGLCAVCGDNAACQHYGVRTCEGCGGFFKRTVQKNAKYVCLANKNCPVDKRRRNRCQYCRFQKCLAVGMVKEVVRTD [K25G]: 0.101 ± 0.094; for EGLCAVCGDNAACQHYGVRTCEGCFGFFKRTVQKNAKYVCLANKNCPVDKRRRNRCQYCRFQKCLAVGMVKEVVRTD [K25F]: -0.047 ± 0.36.
With EGLCAVCGDNAACQHYGVRTCEGCQGFFKRTVQKNAKYVCLANKNCPVDKRRRNRCQYCRFQKCLAVGMVKEVVRTD [K25Q] the figure was -0.019 ± 0.12; with EGLCAVCGDNAACQHYGVRTCEGCPGFFKRTVQKNAKYVCLANKNCPVDKRRRNRCQYCRFQKCLAVGMVKEVVRTD [K25P], -0.675 ± 0.3; with EGLCAVCGDNAACQHYGVRTCEGCVGFFKRTVQKNAKYVCLANKNCPVDKRRRNRCQYCRFQKCLAVGMVKEVVRTD [K25V], 0.046 ± 0.085.
On to EGLCAVCGDNAACQHYGVRTCEGCAGFFKRTVQKNAKYVCLANKNCPVDKRRRNRCQYCRFQKCLAVGMVKEVVRTD [K25A], for which the abundance fitness was 0.127 ± 0.11.
The same measure for EGLCAVCGDNAACQHYGVRTCEWCKGFFKRTVQKNAKYVCLANKNCPVDKRRRNRCQYCRFQKCLAVGMVKEVVRTD [G23W]: -0.029 ± 0.17.
The same measure for EGLCAVCGDNAACQHYGVRTCEQCKGFFKRTVQKNAKYVCLANKNCPVDKRRRNRCQYCRFQKCLAVGMVKEVVRTD [G23Q]: -0.208 ± 0.43; for EGLCAVCGDNAACQHYGVRTCEKCKGFFKRTVQKNAKYVCLANKNCPVDKRRRNRCQYCRFQKCLAVGMVKEVVRTD [G23K]: 0.106 ± 0.19.
With EGLCAVCGDNAACQHYGVRTCEACKGFFKRTVQKNAKYVCLANKNCPVDKRRRNRCQYCRFQKCLAVGMVKEVVRTD [G23A] the figure was -0.136 ± 0.23.
Consider EGLCAVCGDNAACQHYGVRTCESCKGFFKRTVQKNAKYVCLANKNCPVDKRRRNRCQYCRFQKCLAVGMVKEVVRTD [G23S], for which the abundance fitness worked out at 0.306 ± 0.21.
With EGLCAVCGDNAACQHYGVRTCECCKGFFKRTVQKNAKYVCLANKNCPVDKRRRNRCQYCRFQKCLAVGMVKEVVRTD [G23C] the figure was 0.065 ± 0.27; with EGLCAVCGDNAACQHYGVRTCEECKGFFKRTVQKNAKYVCLANKNCPVDKRRRNRCQYCRFQKCLAVGMVKEVVRTD [G23E], -0.016 ± 0.47.
The same measure for EGLCAVCGDNAACQHYGVRTCEICKGFFKRTVQKNAKYVCLANKNCPVDKRRRNRCQYCRFQKCLAVGMVKEVVRTD [G23I]: 0.017 ± 0.25.

(Values after the Human Domainome abundance scans (Beltran et al. 2025).)
